Data taken from patent US20140243502A1.

Experiments:
[1] = biological target: GP IIb/IIIa in its activated, fibrinogen-bound state on activated mouse platelets (mouse) (UniProt Q9QUM0); assay: ex vivo 11.7 T MRI of wire-injured mouse femoral artery after bead perfusion
[2] = biological target: GP IIb/IIIa in its activated, fibrinogen-bound state on activated mouse platelets (mouse) (UniProt Q9QUM0); assay: histology of wire-injured mouse femoral artery after bead perfusion, 20-25 sections per animal

Sequence of GP IIb/IIIa in its activated, fibrinogen-bound state on activated mouse platelets (mouse) (Q9QUM0 32-1033, chain 1 of 2): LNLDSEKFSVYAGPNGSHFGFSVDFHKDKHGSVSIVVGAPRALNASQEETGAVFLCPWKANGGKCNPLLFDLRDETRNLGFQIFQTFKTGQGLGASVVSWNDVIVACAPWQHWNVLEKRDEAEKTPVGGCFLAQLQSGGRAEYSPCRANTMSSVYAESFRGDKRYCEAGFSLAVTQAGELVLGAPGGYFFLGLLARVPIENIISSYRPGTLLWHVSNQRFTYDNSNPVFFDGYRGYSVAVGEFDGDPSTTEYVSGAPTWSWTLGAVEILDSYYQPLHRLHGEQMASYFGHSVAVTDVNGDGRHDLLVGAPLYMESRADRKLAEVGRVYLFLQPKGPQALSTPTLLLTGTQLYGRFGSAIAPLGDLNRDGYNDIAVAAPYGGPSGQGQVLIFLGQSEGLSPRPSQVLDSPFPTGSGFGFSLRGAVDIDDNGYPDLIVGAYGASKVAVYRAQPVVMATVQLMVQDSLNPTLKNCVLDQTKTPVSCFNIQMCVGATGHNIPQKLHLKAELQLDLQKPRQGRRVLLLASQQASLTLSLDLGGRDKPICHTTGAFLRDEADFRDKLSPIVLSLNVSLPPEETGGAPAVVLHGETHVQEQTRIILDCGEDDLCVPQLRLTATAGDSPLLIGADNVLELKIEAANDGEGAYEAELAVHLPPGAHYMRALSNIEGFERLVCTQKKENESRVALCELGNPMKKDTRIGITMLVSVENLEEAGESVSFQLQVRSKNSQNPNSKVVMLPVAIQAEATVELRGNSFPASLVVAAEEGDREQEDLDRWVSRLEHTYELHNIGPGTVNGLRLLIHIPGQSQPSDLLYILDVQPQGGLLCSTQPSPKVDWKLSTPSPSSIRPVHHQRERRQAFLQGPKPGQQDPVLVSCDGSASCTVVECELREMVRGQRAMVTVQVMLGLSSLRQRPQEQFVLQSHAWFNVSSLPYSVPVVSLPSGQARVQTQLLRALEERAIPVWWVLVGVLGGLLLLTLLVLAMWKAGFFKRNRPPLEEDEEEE
Sequence of GP IIb/IIIa in its activated, fibrinogen-bound state on activated mouse platelets (mouse) (O54890 26-787, chain 2 of 2, further chain): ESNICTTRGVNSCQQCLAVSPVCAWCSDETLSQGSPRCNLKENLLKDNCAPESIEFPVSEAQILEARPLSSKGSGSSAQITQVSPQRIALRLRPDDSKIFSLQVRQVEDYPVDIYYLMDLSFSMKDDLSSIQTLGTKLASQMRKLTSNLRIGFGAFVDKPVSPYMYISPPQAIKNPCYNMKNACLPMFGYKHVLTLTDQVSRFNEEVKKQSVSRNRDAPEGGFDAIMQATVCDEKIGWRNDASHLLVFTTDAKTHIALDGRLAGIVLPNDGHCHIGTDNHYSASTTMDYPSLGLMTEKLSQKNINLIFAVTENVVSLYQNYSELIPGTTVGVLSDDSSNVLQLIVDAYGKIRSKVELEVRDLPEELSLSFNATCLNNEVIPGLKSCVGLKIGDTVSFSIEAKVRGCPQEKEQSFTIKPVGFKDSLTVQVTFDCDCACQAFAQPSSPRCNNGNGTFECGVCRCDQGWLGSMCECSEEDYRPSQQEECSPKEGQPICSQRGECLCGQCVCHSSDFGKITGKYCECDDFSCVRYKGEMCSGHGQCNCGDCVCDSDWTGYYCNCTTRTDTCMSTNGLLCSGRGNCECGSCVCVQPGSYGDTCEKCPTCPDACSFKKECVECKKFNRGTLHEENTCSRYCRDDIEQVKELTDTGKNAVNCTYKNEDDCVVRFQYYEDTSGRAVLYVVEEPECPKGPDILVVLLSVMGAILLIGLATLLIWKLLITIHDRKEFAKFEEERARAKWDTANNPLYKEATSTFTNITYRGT

## Control-MPIO (irrelevant single-chain antibody conjugated to 1 µm iron oxide microparticles) (scFv)
[1]
  luminal areas of low signal (MPIO-induced MRI signal void): 6.2
[2]
  MPIOs bound per histology section (beads per section): 0.5
